From the supplement of paper PMC10567573

B1: KRT13 (parent)
chain: TPGIDLTRVLAEMREQYEAMAERN
B2: PTPRD (parent)
chain: FICQATGDPRPKIVWNKKGKKVSN

Variants of: B1
Assay: protein stability index of a GFP-peptide fusion (GPS, HEK-293T) (PSI 1-6); higher = more stable
Settings: c terminus: a fixed tail appended
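Further: lentivirally expressed fusions sorted by FACS into six bins by GFP to DsRed ratio, PSI derived from sequencing read proportions per bin multiplied by bin number.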

Protein stability index: each site, then its substitutions
N24: T 4.22 | M 4.67 | L 4.83 | W 4.55 | I 4.63 | K 3.27 | H 4.79 | Y 3.8 | S 4.51 | F 4 | Q 4.23 | G 4.87 | P 4.07

Variants of: B2
Assay: as above
Settings: c terminus: a fixed tail appended

Protein stability index, by site and new letter:
Q4: W 2.95 | L 2.17 | V 2.08 | I 1.84 | D 1.87 | G 1.88 | K 2.42 | A 1.61 | P 2.14 | R 1.56 | M 1.29 | Y 1.37 | S 1.58 | E 2.18 | F 2.25 | N 2.03 | H 2.33 | C 1.8 | T 3.05
G7: M 1.9 | A 2.15 | R 1.92 | Y 1.7 | S 2.02 | Q 2.22 | E 2.81 | V 1.81 | F 2.69 | H 2.16 | D 1.93 | C 1.87 | P 2.32 | I 2.01 | T 2.01 | N 1.97 | L 2.19 | K 2.39 | W 3.96
F1: S 3.3 | D 3.65 | H 3.71 | M 2.92 | Y 2.26 | N 3.89 | P 3.76 | T 3.08 | L 2.15 | R 3.66 | G 4.53 | W 2.23 | C 3.2 | I 2.35 | V 2.75 | K 3.12 | A 3.28 | Q 3.42 | E 3.2
A5: Y 2.25 | R 2.24 | N 2.09 | E 1.92 | I 1.77 | C 2.12 | W 2.35 | T 2.08 | F 2.19 | L 2.01 | H 2.2 | K 3.03 | P 2.04 | V 2.26 | Q 1.95 | G 2.07 | D 2.39 | S 1.83 | M 2.02
P9: F 1.99 | D 2.14 | C 1.49 | A 1.84 | E 1.99
T6: M 1.65 | D 1.71 | N 1.78 | H 1.68 | I 1.61 | R 2 | Q 2.17 | E 2.05 | K 2.02 | A 1.92 | L 1.47 | Y 2.24 | S 2.94 | G 2.18 | C 2.81 | V 1.91 | F 1.68 | P 1.96
D8: Y 1.45 | A 2.04 | R 2.24 | L 1.5 | I 2.33 | Q 1.77 | G 1.98 | K 2.5 | F 1.85 | T 2.11 | H 1.6 | C 1.94 | E 1.91 | M 1.8 | P 1.8 | S 1.92 | N 2.16
C3: Q 2.05 | W 1.97 | T 1.98 | P 3.54 | N 1.88 | V 2.31 | A 2.55 | I 2.38 | H 2.56 | F 1.92 | D 2.85 | M 1.75 | K 2.57 | S 1.92 | L 1.86 | Y 1.15 | G 2.2 | R 2.06 | E 3.04
I2: N 4.27 | L 2.59 | W 2.95 | V 2.34 | Q 2.83 | C 2.29 | M 3.44 | P 3.89 | R 3.57 | F 3.85 | S 3.75 | G 4.1 | D 4.73 | Y 3.01 | T 3.58 | A 2.67 | H 1.55 | E 4.52 | K 3.47
